Experiments:
[1] = test system: CTSL1_1 FRET substrate (ALFKSSFP)
[2] = test system: CTSL1_2 9-mer FRET substrate Mca-ALFFSSPPSK-Dnp
[3] = test system: ALU30-9
[4] = test system: ALU30-15
[5] = test system: ALU30-6
[6] = test system: ALU30-8
[7] = test system: ALU30-13
[8] = test system: ALU30-12
[9] = test system: ALU30-18
[10] = test system: ALU30-7
[11] = test system: ALU30-1
[12] = test system: ALU30-10
[13] = test system: ALU30-16
[14] = test system: CTSL1_2 8-mer FRET substrate Mca-ALFFSSPPK-Dnp
[15] = test system: ALU30-11
[16] = test system: ALU30-5
[17] = test system: ALU30-14
[18] = test system: ALU30-17
[19] = test system: ALU30-19
[20] = test system: ALU30-2
[21] = test system: ALU30-3
[22] = test system: ALU30-4
Sequence of ALU30-4 (chain, as listed by the source): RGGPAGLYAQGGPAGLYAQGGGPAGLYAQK

Sequence of Cathepsin L (CTSL1), recombinant human (chain, as listed by the source): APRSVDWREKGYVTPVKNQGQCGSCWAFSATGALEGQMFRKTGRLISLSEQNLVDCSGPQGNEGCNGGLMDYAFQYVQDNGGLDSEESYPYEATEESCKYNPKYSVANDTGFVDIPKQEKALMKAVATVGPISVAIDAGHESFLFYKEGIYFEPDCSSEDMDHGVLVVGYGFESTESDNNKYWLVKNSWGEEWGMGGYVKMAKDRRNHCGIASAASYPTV
Sequence of ALU30-18 (chain, as listed by the source): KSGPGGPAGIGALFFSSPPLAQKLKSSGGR
Sequence of ALU30-15 (chain, as listed by the source): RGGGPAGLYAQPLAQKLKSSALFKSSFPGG
Sequence of ALU30-16 (chain, as listed by the source): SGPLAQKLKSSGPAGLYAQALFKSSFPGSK
Sequence of ALU30-6 (chain, as listed by the source): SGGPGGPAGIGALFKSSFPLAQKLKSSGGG
Sequence of ALU30-9 (chain, as listed by the source): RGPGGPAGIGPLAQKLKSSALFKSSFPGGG
Sequence of ALU30-10 (chain, as listed by the source): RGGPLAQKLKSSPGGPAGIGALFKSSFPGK
Sequence of ALU30-1 (chain, as listed by the source): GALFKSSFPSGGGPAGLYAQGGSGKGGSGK
Sequence of ALU30-14 (chain, as listed by the source): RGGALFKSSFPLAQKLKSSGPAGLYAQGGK
Sequence of ALU30-11 (chain, as listed by the source): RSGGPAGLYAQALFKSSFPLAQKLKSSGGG
Sequence of ALU30-8 (chain, as listed by the source): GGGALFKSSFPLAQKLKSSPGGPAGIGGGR
Sequence of ALU30-13 (chain, as listed by the source): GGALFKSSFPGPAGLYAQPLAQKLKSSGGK
Sequence of ALU30-12 (chain, as listed by the source): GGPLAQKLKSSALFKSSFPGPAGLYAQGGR
Sequence of ALU30-5 (chain, as listed by the source): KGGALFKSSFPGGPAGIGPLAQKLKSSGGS
Sequence of ALU30-17 (chain, as listed by the source): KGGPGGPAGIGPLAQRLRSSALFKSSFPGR
Sequence of ALU30-7 (chain, as listed by the source): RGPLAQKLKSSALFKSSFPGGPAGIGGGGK
Sequence of ALU30-2 (chain, as listed by the source): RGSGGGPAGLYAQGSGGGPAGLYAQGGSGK
Sequence of ALU30-3 (chain, as listed by the source): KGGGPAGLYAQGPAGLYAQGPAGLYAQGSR
Sequence of ALU30-19 (chain, as listed by the source): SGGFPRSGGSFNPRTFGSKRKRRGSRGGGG

Substance | 30-mer peptide degradation by recombinant enzyme (MSP-MS) [3] | 30-mer peptide degradation by recombinant enzyme (MSP-MS) [4] | 30-mer peptide degradation by recombinant enzyme (MSP-MS) [5] | 30-mer peptide degradation by recombinant enzyme (MSP-MS) [6] | 30-mer peptide degradation by recombinant enzyme (MSP-MS) [7] | 30-mer peptide degradation by recombinant enzyme (MSP-MS) [8] | 30-mer peptide degradation by recombinant enzyme (MSP-MS) [9] | 30-mer peptide degradation by recombinant enzyme (MSP-MS) [10] | 30-mer peptide degradation by recombinant enzyme (MSP-MS) [11] | 30-mer peptide degradation by recombinant enzyme (MSP-MS) [12] | 30-mer peptide degradation by recombinant enzyme (MSP-MS) [13] | 30-mer peptide degradation by recombinant enzyme (MSP-MS) [15] | 30-mer peptide degradation by recombinant enzyme (MSP-MS) [16] | 30-mer peptide degradation by recombinant enzyme (MSP-MS) [17] | 30-mer peptide degradation by recombinant enzyme (MSP-MS) [18] | other results
Cathepsin L (CTSL1), recombinant human | The most efficiently cleaved peptides were those containing the FAPa_1, CTSL1_1 and ADAM17_2 motifs, in multiple orders | Peptides bearing the MMP14_1 motif with CTSL1_1 and ADAM17_2 were slightly lower efficiency | The most efficiently cleaved peptides were those containing the FAPa_1, CTSL1_1 and ADAM17_2 motifs, in multiple orders | The most efficiently cleaved peptides were those containing the FAPa_1, CTSL1_1 and ADAM17_2 motifs, in multiple orders | Peptides bearing the MMP14_1 motif with CTSL1_1 and ADAM17_2 were slightly lower efficiency | Peptides bearing the MMP14_1 motif with CTSL1_1 and ADAM17_2 were slightly lower efficiency | CTSL1 treatment of the 30-mer peptide library produced cleavages in all peptides bearing a CTSL1_1 or CTSL1_2 motif | The most efficiently cleaved peptides were those containing the FAPa_1, CTSL1_1 and ADAM17_2 motifs, in multiple orders | CTSL1 treatment of the 30-mer peptide library produced cleavages in all peptides bearing a CTSL1_1 or CTSL1_2 motif | The most efficiently cleaved peptides were those containing the FAPa_1, CTSL1_1 and ADAM17_2 motifs, in multiple orders | Peptides bearing the MMP14_1 motif with CTSL1_1 and ADAM17_2 were slightly lower efficiency | Peptides bearing the MMP14_1 motif with CTSL1_1 and ADAM17_2 were slightly lower efficiency | The most efficiently cleaved peptides were those containing the FAPa_1, CTSL1_1 and ADAM17_2 motifs, in multiple orders | Peptides bearing the MMP14_1 motif with CTSL1_1 and ADAM17_2 were slightly lower efficiency | CTSL1 treatment of the 30-mer peptide library produced cleavages in all peptides bearing a CTSL1_1 or CTSL1_2 motif | FRET substrate cleavage by recombinant enzyme [1]: CTSL1 cleaves the FRET substrate bearing the CTSL1_1 motif highly efficiently; FRET substrate cleavage by recombinant enzyme [2]: This 9-mer FRET substrate bearing the CTSL1_2 motif produced comparable catalytic efficiency to the CTSL1_1 motif; comparison of cleavage efficiencies across the 30-mer library [4]: it had slightly higher hepsin susceptibility and lower CTSL1 activity; 30-mer peptide cleavage (mass spectrometry) [5]: Both peptides showed rapid disappearance of substrate (squares) and product formation from cleavage at the target scissile bond; 30-mer peptide cleavage (mass spectrometry) [9]: Both peptides showed rapid disappearance of substrate (squares) and product formation from cleavage at the target scissile bond; FRET substrate cleavage by recombinant enzyme [14]: the new CTSL1_2 motif was not cleaved in the context of an 8-mer FRET peptide
thrombin, recombinant human | The two alternate ADAM17 motifs were cleaved with similar efficiency (peptides Alu30-17 vs Alu30-9) | the peptides Alu30-12, Alu30-13 and Alu30-15, with MMP141 motifs in combination with ADAM17_2 and CTSL1_1, were cleaved at lower efficiency by thrombin | the CTSL1_2 motif had lower cleavage activity than did the CTSL1_1 motif (peptides Alu30-18 vs Alu30-6) | Thrombin showed higher activity than Factor Xa, and it cleaved each of the 30-mer peptides | the peptides Alu30-12, Alu30-13 and Alu30-15, with MMP141 motifs in combination with ADAM17_2 and CTSL1_1, were cleaved at lower efficiency by thrombin | the peptides Alu30-12, Alu30-13 and Alu30-15, with MMP141 motifs in combination with ADAM17_2 and CTSL1_1, were cleaved at lower efficiency by thrombin | the CTSL1_2 motif had lower cleavage activity than did the CTSL1_1 motif (peptides Alu30-18 vs Alu30-6) | Thrombin showed higher activity than Factor Xa, and it cleaved each of the 30-mer peptides | The peptides Alu30-1 and Alu30-3 were the most rapidly cleaved in the library | Thrombin showed higher activity than Factor Xa, and it cleaved each of the 30-mer peptides | Thrombin showed higher activity than Factor Xa, and it cleaved each of the 30-mer peptides | Thrombin showed higher activity than Factor Xa, and it cleaved each of the 30-mer peptides | Thrombin showed higher activity than Factor Xa, and it cleaved each of the 30-mer peptides | Thrombin showed higher activity than Factor Xa, and it cleaved each of the 30-mer peptides | The two alternate ADAM17 motifs were cleaved with similar efficiency (peptides Alu30-17 vs Alu30-9) | 30-mer peptide degradation by recombinant enzyme (MSP-MS) [19]: Thrombin showed higher activity than Factor Xa, and it cleaved each of the 30-mer peptides; 30-mer peptide degradation by recombinant enzyme (MSP-MS) [20]: The peptide Alu30-2, bearing two MMP14_1 motifs, was less susceptible to thrombin; comparison of cleavage efficiencies across the 30-mer library [13]: the lowest susceptibility to thrombin, Factor Xa, and hepsin; 30-mer peptide degradation by recombinant enzyme (MSP-MS) [21]: The peptides Alu30-1 and Alu30-3 were the most rapidly cleaved in the library; 30-mer peptide degradation by recombinant enzyme (MSP-MS) [22]: Alu30-4 was also an efficient substrate
